The supplement of paper PMC12764529
± gives the half width of the 95% confidence interval.

What was measured:
[1] = folding stability dG unfold from trypsin proteolysis; higher = more stable
Method in brief: (§1)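 Designed mini-proteins with no cysteine and under 80 residues were kept only if AlphaFold2 dimer inter-PAE was above 15. In a PA-tagged cDNA display construct, they were digested with trypsin and chymotrypsin and then sequenced. K50 was inferred by Bayesian fitting of counts, and unfolding free energy was derived per protease or combined against a sequence-predicted unfolded-state K50 and a shared folded-state K50.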

[2] = folding stability dG unfold (combined trypsin and chymotrypsin); higher = more stable
Method in brief: as §1

[3] = folding stability dG unfold from chymotrypsin proteolysis; higher = more stable
Method in brief: as §1

Sequence | folding stability dG unfold [1] | folding stability dG unfold [2] | folding stability dG unfold [3]
SAGKVKIEVEEVPPNVKKVKVESLEELLEAAKKLPPGAVVEVELEDGSKVTVVLNKDGKVVEVKKEPVPSAG [r5_506_TrROS_Hall] | 2.61 ± 0.35 kcal/mol | 1.58 ± 0.27 kcal/mol | 0.9 ± 0.16 kcal/mol
SAGKVKIVKIDKGKNKITIEFYDDGKKIATIPFPPNFPNTKVIAEVNEDGSIKVTFISGDKPIEITIDASAG [r5_533_TrMRF] | 2.57 ± 0.16 kcal/mol | 2.59 ± 0.12 kcal/mol | 2.64 ± 0.1 kcal/mol
SAGKVKVEKLEDGTVIVEAEIKDPETDEYIKIFDLVTFNPETGYALVPRLVIKGDKPFTFPVLVKLPKSAGG [r19_289_TrMRF] | 0.0636 ± 0.067 kcal/mol | 0.671 ± 0.12 kcal/mol | 0.931 ± 0.11 kcal/mol
SAGKVTVERDPSTNVVNVTVEVERERDVPPGAPVTETIIIPARVKFDEDGKLVEPISLDDILAAIRAAGSAG [r5_239_TrMRF] | 0.221 ± 0.12 kcal/mol | 0.629 ± 0.21 kcal/mol | 0.684 ± 0.095 kcal/mol
SAGKYIMHPIKAGAEIKITIPPEGYRIKIGMYYPNGGKMEEHEVPIKPGKTLEFKIPDPNFFVMIEPEPSAG [r5_797_TrROS] | 0.984 ± 0.1 kcal/mol | 1.3 ± 0.26 kcal/mol | 1.57 ± 0.25 kcal/mol
SAGLAAAIAAAGAIAEALGVTVRVEVFRDGELVGTFEIPAPVGDGEPVSLEVRLPDPEVTVRFELRIPGSAG [r14_728_TrMRF] | 2.26 ± 0.14 kcal/mol | 2.5 ± 0.11 kcal/mol | 2.51 ± 0.037 kcal/mol
SAGLDEEAYRNGLTVYLTSRLPGPDVLRPQWFDVTPEGDGFTYNVALPDGVPVNLEVLSRKVLSPEELLSAG [r14_427_JUSTAS] | -0.489 ± 0.51 kcal/mol | 0.0205 ± 0.19 kcal/mol | 0.149 ± 0.32 kcal/mol
SAGLEVVKKLAEELGFPVEILRVEYDPETGELTFEAVARPKDGKTRRVRIRIRVPKESDEVEIELEYFDSAG [r5_929_TrMRF] | 4.67 ± 0.11 kcal/mol | 4.51 ± 0.1 kcal/mol | 3.95 ± 0.082 kcal/mol
SAGLGLEKAKKLAEKIAETLKKELEKELGIPADQIKVEAKVEKLPDGSYKITVKINLKDIPIEKVFYVDSAG [r14_226_TrMRF] | 3.5 ± 0.52 kcal/mol | 2.87 ± 0.31 kcal/mol | 2.9 ± 0.069 kcal/mol
SAGLKVEIFPMDGTEQTIPIPAEDADPLVDEFQDNGFKVDNVEVDPDGEVWIPIKFPNGRPWMIEIDWESAG [r5_645_TrROS] | -0.0958 ± 0.093 kcal/mol | 0.0616 ± 0.29 kcal/mol | -0.0946 ± 0.31 kcal/mol
SAGLRVVAVARTPDGSLVVVYELPDRLVVLRYTPTAITSVAVFPVPPVPPPPAVPRYYDPVTGRWVDGSAGG [r19_254_TrMRF] | 1.71 ± 0.029 kcal/mol | 3.02 ± 0.061 kcal/mol | 3.641 ± 0.026 kcal/mol
SAGMAVVKITLEYEDGRKEEFILFVESENPEEVLEEAEEALAELIEELDVPLKSATIEIYDIPPDEELSAGG [r19_335_TrMRF] | 2.12 ± 0.11 kcal/mol | 3 ± 0.1 kcal/mol | 3.39 ± 0.09 kcal/mol
SAGMEEEEVVLKIRVKDPETGEEKTFEVKLKDIEKVEVDEDGNIRIYLKEDGKEITIPADKITEVELLSAGG [r19_416_TrROS_Hall] | 3.15 ± 0.11 kcal/mol | 3.71 ± 0.089 kcal/mol | 3.86 ± 0.059 kcal/mol
SAGMEELAEELAKELEGEGLKVEVEVDPETGVVTVTAYSPESVTVVTITQDPNNDAFTVNTTTYPPLLSAGG [r19_2_JUSTAS] | 3.07 ± 0.083 kcal/mol | 3.02 ± 0.059 kcal/mol | 2.95 ± 0.061 kcal/mol
SAGMEIKYTITVSLSSGQTLGTKTITDPGKSIEEIVKEFAKIPGLTLITVTVTNPDGTPTTVTIPVNPSAGG [r19_269_JUSTAS] | 2.24 ± 0.059 kcal/mol | 2.79 ± 0.051 kcal/mol | 3.072 ± 0.022 kcal/mol
SAGMEITTVTLPDGTKLITITLPVPGGPSITADVPYDPATGKVTLLKITGEDPALEALAKEAVEKLKKESAG [r5_266_JUSTAS] | 0.68 ± 0.032 kcal/mol | 1.09 ± 0.11 kcal/mol | 1.17 ± 0.053 kcal/mol
SAGMEITVPGPFLSQEVFDLPDRPYLVLPTPEGIAVIDLVTGEAVFYPFGTTEPIVVPVPPGEELDLLSAGG [r19_138_TrMRF] | 1.73 ± 0.091 kcal/mol | 1.83 ± 0.088 kcal/mol | 1.97 ± 0.042 kcal/mol
SAGMEKVKLTFKTEDGSEVEIEIVKNEDGSYFVKVKVDKENQEIYVFNADGELIEKIKVKSLEDALKALSAG [r5_757_TrROS_Hall] | 1.69 ± 0.063 kcal/mol | 2.73 ± 0.12 kcal/mol | 3.19 ± 0.052 kcal/mol

Sequence | folding stability dG unfold [1] | folding stability dG unfold [2] | folding stability dG unfold [3]
SAGMEPTTITVDVTIPPEVFARLSEEELKEKVLAELGIPESLPVEVEISRKEVKLDGKTVYVVPMTIVGSAG [r14_334_JUSTAS] | 0.117 ± 0.085 kcal/mol | 0.407 ± 0.089 kcal/mol | 0.652 ± 0.11 kcal/mol
SAGMEPVSIKITKIEKTPENKDYVIVTVTPPDGVPTEIKVPIEFYKSGKLKNATAEELVKLFPEYKLESAGG [r19_74_JUSTAS] | 1.13 ± 0.065 kcal/mol | 2.28 ± 0.12 kcal/mol | 2.68 ± 0.045 kcal/mol
SAGMETVKIKVRVKVTVRERLPDGTVKTREFELTLEIEVEVEPGQTAEELAKKLAEEFNIEEVEIEKVPSAG [r5_994_TrROS_Hall] | 2.57 ± 0.19 kcal/mol | 3.29 ± 0.38 kcal/mol | 3.83 ± 0.58 kcal/mol
SAGMEVEWEIGDADEDGYVRLTVKAVLLIPETGKPVVVEAEIKMPIEELENEEVLKELARKVVEEAEAESAG [r5_964_TrMRF] | 1.4 ± 0.037 kcal/mol | 1.85 ± 0.086 kcal/mol | 2.1 ± 0.032 kcal/mol
SAGMEVKVETVTIEIEVDGKKIEIKVVRVEVRNEDGSIYEFTFIEITVPEDVSEEELRKLLEELGLEPESAG [r5_486_TrROS_Hall] | 2.64 ± 0.12 kcal/mol | 3.77 ± 0.29 kcal/mol | 4.1 ± 0.31 kcal/mol
SAGMFVKIKFKTADKTVEELVKKIKEETGIPENAKITVIAEKSEDEGFVVIIEFDEEEVRDKIKEIVGSAGG [r19_215_TrMRF] | 1.52 ± 0.026 kcal/mol | 1.45 ± 0.087 kcal/mol | 1.35 ± 0.062 kcal/mol
SAGMGATLVSESEEEIDSSGVRKLTYRSPGSLLVETLYPDGTVPVYVIDPSTGKVVEERVFHVPPDVPLSAG [r14_676_JUSTAS] | 0.179 ± 0.13 kcal/mol | 0.204 ± 0.13 kcal/mol | 0.166 ± 0.17 kcal/mol
SAGMIEILELPPNKAIVKIYDPKTGKFEIIEIDFGGKDGKPLSLEELIEKIKKLAKELYPDLEINVTPLSAG [r5_293_TrMRF] | 3.28 ± 0.26 kcal/mol | 2.61 ± 0.17 kcal/mol | 1.98 ± 0.063 kcal/mol
SAGMIEISEEGDTLTVTVPPGVSLEEVREYVEKKYPGMDLQEITETALPDGTTTVTFNVKKNPPSPKLLSAG [r5_110_JUSTAS] | -0.658 ± 0.37 kcal/mol | 0.316 ± 0.16 kcal/mol | 0.699 ± 0.23 kcal/mol
SAGMIEITLYPPKAVVDVTVTIGGESESRTIPVDGKSKEEVIEEAREEVKAEYPDKAITTKVTEVPGDGSAG [r5_180_JUSTAS] | -0.437 ± 0.18 kcal/mol | 0.641 ± 0.071 kcal/mol | 1.03 ± 0.098 kcal/mol
SAGMIKPEEIVEKVKAIFEEEGLENVTVKVYYDEETDEIFVEVEVELEPEEEEKAQAILDKIKKELGLESAG [r5_9_TrMRF] | 3.02 ± 0.29 kcal/mol | 2.85 ± 0.21 kcal/mol | 2.38 ± 0.23 kcal/mol
SAGMIKVEVVVPPEDPSKPPSEEELRALAEEVVRELGLDPAKHPIEIKREVVDPEKGVLRYTITVKLPSAGG [r19_244_JUSTAS] | 3.09 ± 0.092 kcal/mol | 2.96 ± 0.11 kcal/mol | 2.87 ± 0.069 kcal/mol
SAGMIKVEVYTLDPNGVLTKETYEIPLLPGTPIEEVVNELTEPGTGAVEIVEYNPPPPEIKIKIVRFPASAG [r5_227_TrMRF] | 1.48 ± 0.43 kcal/mol | 2.49 ± 0.23 kcal/mol | 2.94 ± 0.09 kcal/mol
SAGMILPPNTVVTLSTTTTEELPLFTDGSGPRTTTTETVVTVEPVPVNPYPDPAVREKLLAEGKPLELLSAG [r5_624_JUSTAS] | -0.513 ± 0.13 kcal/mol | -0.265 ± 0.12 kcal/mol | -0.207 ± 0.13 kcal/mol
SAGMIRIIVDGKEVEEIEMSEEELRALLADPNIKKARVFVNGEEKEVEVKEGEIKEKLPPGAVIRIEKSAGG [r19_152_TrROS_Hall] | 1.45 ± 0.061 kcal/mol | 1.79 ± 0.12 kcal/mol | 2.04 ± 0.031 kcal/mol
SAGMITPEELEERIRKLAEETGGPRYRVKVRGPDGPLYEFEVGFTPEEIERLAKELGVDIVEVEPIPESAGG [r19_50_TrMRF] | 2.97 ± 0.085 kcal/mol | 3 ± 0.11 kcal/mol | 3.07 ± 0.13 kcal/mol
SAGMKIKITLPNGAEFESNPETGKIEVIDPETGKPLIAYIPKDRPDIAFIFDPDNPKPLFEVKIDEIYPSAG [r5_761_TrMRF] | 0.889 ± 0.016 kcal/mol | 1.11 ± 0.051 kcal/mol | 1.27 ± 0.042 kcal/mol
SAGMKIRILILGKGDPAQVEALAKELEAKLKEELGTEDVEVETLPASLTEEAAEERAKEEKVDIVVYESAGG [r19_89_JUSTAS] | 0.85 ± 0.045 kcal/mol | 0.99 ± 0.09 kcal/mol | 1.08 ± 0.13 kcal/mol
